{
  "source": "paper PMC2701924",
  "about": "“Molecular cloning and expression of a novel trehalose synthase gene from Enterobacter hormaechei” (Microbial Cell Factories, 2009)",
  "proteins": {"B1": {"name": "recombinant TreS (Enterobacter hormaechei trehalose synthase) (Enterobacter hormaechei) (protein)", "chain": "MAGWHTRAIIYQIDTALFYDLNGDGCGDIAGITAKLRYIRRMGATVIWITPFYLTPFLDEGYDVSDHLQVDPRFGKLNDIIAFIEQARELGMQVIIELLIQHTSDAHPWFQQARRNPQSPYRDYYLWSDTDDDDTPPMFPGVEKSIWTWDDEAGQYYRHMFYHHEPDLNLASPAVLKEVENIIIFWLKLGVSGFRLDAASHLTKQAGRGDEKRGLWILEHLRCLIGQRNPDAILLGEVDVEVEAYKDYFGQNDRLNLVLNFWLNKYFYVSLAEKSARPLRNAVKKMIVPPDSCCFANWLRNHDELDLEGIGKKAKQTVIDTFAPDEEMSVYQRGIRRRLAPMLNGDRKRLAFCHAVLFSLPGVPVMRYGDEIGMGDDLDLEERYAVRTPMQWAGSQGGGFSDADPETFVAPMIDHGPYRYQKINVADSLLHRNSLLHCIIDIANTRSEFPEIGVAPFRLINIDSDAVLGIYYETDTRSILTFVNFSDKPVNFTARGIRHATWTACLADKRYDDALVCGKTVALNLSGYGYRWFWTDRTALR", "notes": "pET30a(+) Nco I/Not I; 46 additional N-terminal residues incl; 6-His tag kept; about 65 kDa on SDS-PAGE; expressed in E. coli BL21(DE3) plysS, Ni-NTA"}},
  "substrate": "OC[C@H]1O[C@H](O[C@H]2O[C@H](CO)[C@@H](O)[C@H](O)[C@H]2O)[C@H](O)[C@@H](O)[C@@H]1O",
  "assay": "initial rates, ion chromatography of products, Lineweaver-Burk",
  "assay_type": "biochemical, Enterobacter hormaechei",
  "details": "substrate 1-200 mM, pH and temperature not stated for kinetics (standard assay 50 mM phosphate pH 6, 37°C), reverse reaction",
  "data": [
    {"protein": "B1", "values": [
      {"measurement": "Km", "result": 75, "unit": "mM"}
    ]}
  ]
}
